Test results from doi:10.1101/2025.05.07.652675 (bioRxiv, 2025).
Substitutions are numbered along the chain they refer to. Numbers in names are those of the source.

T1: SUMO-FtsZ (6×His-SUMO fusion of full length FtsZ) (E. coli, UniProt P0A9A6 1-383)
T1 sequence: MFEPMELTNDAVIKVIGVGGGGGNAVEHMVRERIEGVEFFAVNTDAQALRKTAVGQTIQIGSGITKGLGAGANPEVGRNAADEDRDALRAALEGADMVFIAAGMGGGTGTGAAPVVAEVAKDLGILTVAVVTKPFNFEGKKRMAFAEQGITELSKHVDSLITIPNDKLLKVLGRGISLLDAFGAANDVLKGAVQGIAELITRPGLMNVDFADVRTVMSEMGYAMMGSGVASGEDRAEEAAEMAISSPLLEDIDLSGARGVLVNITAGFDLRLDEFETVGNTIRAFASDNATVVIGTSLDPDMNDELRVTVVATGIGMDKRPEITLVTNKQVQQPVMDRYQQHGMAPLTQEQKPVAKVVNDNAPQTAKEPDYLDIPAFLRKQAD

B1: SUMO-FtsZ^316-383 (domain or fragment)
chain: GMDKRPEITLVTNKQVQQPVMDRYQQHGMAPLTQEQKPVAKVVNDNAPQTAKEPDYLDIPAFLRKQAD
B2: ZapC (untagged) (natural protein)
chain: not shown
B3: FtsZ (wild type, untagged) (natural protein)
chain: T1 sequence
B4: FtsZ^F285S (untagged) (natural protein)
chain: T1 sequence with F285S
B5: FtsZ^I323L (untagged) (natural protein)
chain: T1 sequence with I323L
B6: FtsZ^A376T (untagged) (natural protein)
chain: T1 sequence with A376T
B7: FtsZ^D360Y (untagged) (natural protein)
chain: T1 sequence with D360Y
B8: 6×His-ZapC (natural protein)
chain: not shown
B9: FtsZ^1-370 (domain or fragment)
chain: MFEPMELTNDAVIKVIGVGGGGGNAVEHMVRERIEGVEFFAVNTDAQALRKTAVGQTIQIGSGITKGLGAGANPEVGRNAADEDRDALRAALEGADMVFIAAGMGGGTGTGAAPVVAEVAKDLGILTVAVVTKPFNFEGKKRMAFAEQGITELSKHVDSLITIPNDKLLKVLGRGISLLDAFGAANDVLKGAVQGIAELITRPGLMNVDFADVRTVMSEMGYAMMGSGVASGEDRAEEAAEMAISSPLLEDIDLSGARGVLVNITAGFDLRLDEFETVGNTIRAFASDNATVVIGTSLDPDMNDELRVTVVATGIGMDKRPEITLVTNKQVQQPVMDRYQQHGMAPLTQEQKPVAKVVNDNAPQTAKEPD

Experiments:
ZapC (untagged) = target: B2; assay: BLI
[1] = target: T1, SUMO-FtsZ (6×His-SUMO fusion of full …); assay: BLI
[2] = target: 6×His-ZapC F30D K94D double mutant (E. coli, UniProt P75862 1-180, F30D | K94D); assay: BLI
[3] = target: the molecule itself; assay: sedimentation of polymers by ultracentrifugation
[4] = target: the molecule itself; assay: negative stain electron microscopy
[5] = target: B3; assay: BLI
FtsZ^F285S (untagged) = target: B4; assay: BLI
FtsZ^D360Y (untagged) = target: B7; assay: co-sedimentation
FtsZ^A376T (untagged) = target: B6; assay: co-sedimentation
FtsZ^I323L (untagged) = target: B5; assay: co-sedimentation
6×His-ZapC = target: B8; assay: BLI

Binder: B1
- Kd (ZapC (untagged)): 10 µM

Binder: B2
- Kd [1]: 1.5 µM

Binder: B3
- Kd relative to wild-type ZapC (times higher) [2]: 12 times
- binding result [3]: binds

Binder: B4
- binding result [3]: binds

Binder: B5
- binding result [4]: binds

Binder: B6
- binding result [4]: binds

Binder: B7
- binding result [4]: binds

Binder: B8
- Kd [5]: 0.39 µM
- Kd (FtsZ^F285S (untagged)): 6.37 µM
- binding result (FtsZ^D360Y (untagged)): binds
- binding result (FtsZ^A376T (untagged)): binds
- binding result (FtsZ^I323L (untagged)): binds

Binder: B9
- binding affinity relative to wild-type FtsZ (fold lower) (6×His-ZapC): ~3 fold
